Experimental data reported in the supplement of paper PMC10724198.
± gives the standard deviation of the averaged measurements.

System: Saccharomyces cerevisiae
Experiment: protein stability index of tFT-peptide fusion (C-terminal peptide) (PSI (0-1 scale)); higher = more stable (slower turnover)
Conditions: genetic background: wild type; temperature: 30 C
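Further: PSI is a weighted mean of sequencing reads over stability bins, variants kept only with over 10 reads, mCherry proximal and sfGFP distal, peptide attached via GGGS linker.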

| Sequence | protein stability index |
| --- | --- |
| LPFLPPPPPLRP | 0.694 ± 0.11 |
| PLALPLPRLVLP | 0.643 ± 0.026 |
| GSDWGYDSGLKG | 0.765 ± 0.044 |
| LDLSIKNPIKWR | 0.747 ± 0.089 |
| NLHLVRNEELVL | 0.6743 ± 0.0036 |
| GGRGVEVAGKGW | 0.686 ± 0.08 |
| PPPPPLPPQLSH | 0.756 ± 0.011 |
| SDEIKTLGLRKK | 0.683 ± 0.025 |
| STPPPHSPLPPP | 0.689 ± 0.066 |
| KKKTKNGKEKRR | 0.7 ± 0.019 |
| THSLRIRESNNT | 0.674 ± 0.014 |
| PSSFPDPFSPSL | 0.735 ± 0.037 |
| VWSGGDGGGAVV | 0.733 ± 0.051 |
| PPPPRPPPQSPS | 0.724 ± 0.021 |
| GVDPVGVLFCGA | 0.656 ± 0.074 |
| PSLLFHPAPFFP | 0.756 ± 0.085 |
| RCTPPPPTPPAT | 0.6832 ± 0.0027 |
| KWSETGQDGIER | 0.701 ± 0.081 |
| CFGFVRSLGWWG | 0.6486 ± 0.0027 |
| IGYSSIYKTTGT | 0.668 ± 0.033 |
| PSPPLCPPRFSP | 0.652 ± 0.025 |
| PPLPPSPPFPPP | 0.653 ± 0.015 |
| GDVSYRWLRACT | 0.6576 ± 0.00085 |
| LPSPAFLTPPPL | 0.788 ± 0.1 |
| GGWRRDGSLCGA | 0.733 ± 0.14 |
| PRSPPCPLPPPL | 0.65 ± 0.11 |

| Sequence | protein stability index |
| --- | --- |
| LHKAATADPPRV | 0.711 ± 0.02 |
| VFACDTRHWSFD | 0.796 ± 0.019 |
| CQDDGTAKRHKG | 0.676 ± 0.061 |
| GGSRRGLGAAGE | 0.671 ± 0.022 |
| GYMRMGLCVYSD | 0.596 ± 0.092 |
| GRRWKQHPGWVS | 0.573 ± 0.051 |
| LPPPTSFPSFPP | 0.724 ± 0.027 |
| PSCPAPPAARPL | 0.74 ± 0.11 |
| GAKQSSKRPRAS | 0.719 ± 0.028 |
| GPGTAMCLWWWG | 0.692 ± 0.0085 |
| MKSSPFRASLDT | 0.676 ± 0.094 |
| PPPPRPAPSAPY | 0.676 ± 0.045 |
| RPGAFDNGLTLP | 0.682 ± 0.055 |
| RSIFLSRFVIGC | 0.682 ± 0.018 |
| CMFATFLFVPPL | 0.591 ± 0.014 |
| IPRGTTTFLLEV | 0.638 ± 0.041 |
| PVLLPPCCLAIV | 0.548 ± 0.026 |
| RIKTRDVSGNYC | 0.708 ± 0.026 |
| WCECGVWGGLWG | 0.719 ± 0.021 |
| AGICLRSFRCFW | 0.672 ± 0.0079 |
| DNKGKDEESERR | 0.709 ± 0.038 |
| QPPSPHTLRADI | 0.787 ± 0.0037 |
| ALSRRPAAGDGP | 0.641 ± 0.024 |
| PTSLLPLRLLNS | 0.61185 ± 0.00055 |
| WRLCWWVVESGG | 0.639 ± 0.02 |
| PHPPPSPGPSPP | 0.707 ± 0.11 |

| Sequence | protein stability index |
| --- | --- |
| VPLRLSTVSFGP | 0.746 ± 0.12 |
| GTVGRPNATGKV | 0.742 ± 0.088 |
| LSGVSGALVFVG | 0.676 ± 0.047 |
| EKYELHEVEKEI | 0.597 ± 0.049 |
| GHVETQTRMASG | 0.789 ± 0.19 |
| KLSIKNLFDLLY | 0.691 ± 0.033 |
| VYFLDPSSPPWF | 0.752 ± 0.011 |
| SPLAPLPPPPLT | 0.884 ± 0.1 |
| CGALSVLGWEPF | 0.71615 ± 0.0001 |
| PYLLSLLSPLPL | 0.7005 ± 0.007 |
| MTEFSESEGFIF | 0.735 ± 0.064 |
| AGAATGAGGLQG | 0.672 ± 0.037 |
| GGGVTRMQQRNG | 0.6774 ± 0.002 |
| RKRVKRTIYESK | 0.635 ± 0.1 |
| SDPLRLPNTCQH | 0.669 ± 0.009 |
| PPPHTRVIPSSP | 0.6763 ± 0.0052 |
| SGIEHVLIVYDT | 0.679 ± 0.11 |
| LWKAGRIGTIWS | 0.714 ± 0.016 |
| VPPLFALAPPAP | 0.681 ± 0.029 |
| NLDFGYAERWQG | 0.768 ± 0.06 |
| EPGLIPVAGTFF | 0.76 ± 0.011 |
| CLSPAPLPPFFY | 0.6724 ± 0.0018 |
| VRCSLPSPSPRP | 0.77 ± 0.015 |
| YVGAENRGVQGW | 0.723 ± 0.016 |
| GLYSRPVNSNSF | 0.762 ± 0.022 |
| PLPPPPLLALCS | 0.531 ± 0.02 |

| Sequence | protein stability index |
| --- | --- |
| PQTVAHPPPPPR | 0.688 ± 0.04 |
| RRYLREEDVQEK | 0.696 ± 0.049 |
| QFWRSSSSRLAS | 0.687 ± 0.045 |
| ATYPVPMPPTPQ | 0.734 ± 0.037 |
| GHEQIISIKGIK | 0.73 ± 0.049 |
| WRLAGRRGIQCD | 0.7 ± 0.017 |
| VFVCFMSHLRGS | 0.58 ± 0.012 |
| REKEIIIIKKEK | 0.683 ± 0.037 |
| ISGTDGVRHFLG | 0.662 ± 0.018 |
| FGGLLFTRFGWE | 0.802 ± 0.056 |
| TGGRRKNCIIKK | 0.688 ± 0.062 |
| IRKNLIPLTIFT | 0.538 ± 0.028 |
| RRAPTTATPARP | 0.826 ± 0.14 |
| PPPAPPPLAPPL | 0.713 ± 0.0086 |
| CCLNHIFECLTL | 0.7012 ± 0.0066 |
| GRVIVCLSWGRL | 0.591 ± 0.019 |
| LLQQILKDYAEI | 0.686 ± 0.033 |
| SLPSWPPAPLPG | 0.703 ± 0.025 |
| DKNRNKKKKYER | 0.641 ± 0.038 |
| VAVWGAIRHASN | 0.718 ± 0.033 |
| VGDPHPIMQSLL | 0.773 ± 0.049 |
| PPRPPPPRPPPL | 0.742 ± 0.028 |
| WPSTLHRGLSLP | 0.702 ± 0.074 |
| HPGPAPPPPRGP | 0.66 ± 0.019 |
| SDSSRRVFDVRR | 0.705 ± 0.046 |
| PRQAPPSLPSPP | 0.697 ± 0.076 |

| Sequence | protein stability index |
| --- | --- |
| HPPPPAAKVAPV | 0.629 ± 0.048 |
| DPGGLSNYSRAS | 0.67 ± 0.036 |
| VRHYSSNFAPFI | 0.676 ± 0.025 |
| DDGGQPKVLLCV | 0.6688 ± 0.0011 |
| IHLGVLTAFGLS | 0.701 ± 0.032 |
| NGREHHLESSYN | 0.654 ± 0.038 |
| SKSRGVIVTVMV | 0.5681 ± 0.00072 |
| WRGIFPSRFCLS | 0.62 ± 0.039 |
| TGTVYGGTRRGQ | 0.698 ± 0.075 |
| RPSYRFFVRCSP | 0.762 ± 0.053 |
| FPCAPFLLLDVS | 0.663 ± 0.0029 |
| PPSPPRPHFPSL | 0.739 ± 0.042 |
| GRLFLHPSLLAS | 0.596 ± 0.062 |
| RSRHRRQDGKKT | 0.64 ± 0.029 |
| DGRTYGHYKVVA | 0.697 ± 0.027 |
| LSLPHPSPLSFS | 0.718 ± 0.038 |
| KKQKKHKKEKEK | 0.638 ± 0.019 |
| RPFYPLVRPRTR | 0.798 ± 0.2 |
| PSPAPSGPAHHP | 0.667 ± 0.05 |
| PPTPRPHPPSRP | 0.758 ± 0.022 |
| SMCSVAGVWWLG | 0.728 ± 0.062 |
| PSLLSMHSFSLC | 0.68 ± 0.014 |
| RLELRVPPSFAH | 0.715 ± 0.0095 |
| VARRGLFLSISW | 0.596 ± 0.088 |
| ALASLPPQPHSP | 0.665 ± 0.047 |
| PRPDSRTRLPRP | 0.661 ± 0.019 |

| Sequence | protein stability index |
| --- | --- |
| PPPPPDAPRSSL | 0.7043 ± 0.0066 |
| YTSTSTILRPFP | 0.676 ± 0.078 |
| HTTPGPYVLPWP | 0.807 ± 0.06 |
| PFRPPPRFPPPV | 0.815 ± 0.042 |
| LMYGCAQHRNRS | 0.61 ± 0.033 |
| GDVGGLFYVSLL | 0.7569 ± 0.0027 |
| GMECFSGRGSEP | 0.735 ± 0.062 |
| SLPQAPLRPAPS | 0.656 ± 0.046 |
| TASPPLHSFLGS | 0.679 ± 0.034 |
| ALPPLLLLPASP | 0.691 ± 0.0093 |
| PFSGLPVRCELC | 0.672 ± 0.048 |
| ILFLRFLHSVFS | 0.5364 ± 0.0038 |
| GAGVCEQGLALA | 0.649 ± 0.091 |
| GEAGGEESEEGY | 0.676 ± 0.042 |
| ACPCTLCMALSR | 0.6476 ± 0.0014 |
| KKKKTKKKTNSI | 0.727 ± 0.0076 |
| LPRLHLSPASPP | 0.611 ± 0.048 |
| GLPSLHGTFRLS | 0.69 ± 0.0077 |
| HSPTPLLPPSPS | 0.727 ± 0.045 |
| RSTSPCPPTVSP | 0.641 ± 0.091 |
| LPLPPLLPPPSP | 0.68 ± 0.073 |
| NLCRFHFRNRFS | 0.565 ± 0.011 |
| GGCSGGNGGCDG | 0.678 ± 0.028 |
| EVRLGKDKANRI | 0.691 ± 0.067 |
| VFLRSGCSGGGE | 0.799 ± 0.063 |
| GGPSLLEGGAWA | 0.6436 ± 0.0023 |

| Sequence | protein stability index |
| --- | --- |
| VRFRCIPGSPVC | 0.643 ± 0.0094 |
| PPSSPPHSRRHG | 0.664 ± 0.055 |
| SWVDVGSWLGGV | 0.7108 ± 0.0043 |
| CWGGWGLWLLEV | 0.516 ± 0.023 |
| PLPPPSGLLSRL | 0.902 ± 0.047 |
| RSSECNQLYTHK | 0.682 ± 0.065 |
| AWGSVVTFLGLR | 0.737 ± 0.054 |
| PGPLVFPLPLAC | 0.578 ± 0.036 |
| LSNLQPPISVPL | 0.6473 ± 0.006 |
| PPPPRPLPLPTT | 0.751 ± 0.056 |
| INKKETKKNKIK | 0.612 ± 0.073 |
| KKKKKQKKKKKK | 0.643 ± 0.048 |
| PPALSSNPVIPG | 0.626 ± 0.099 |
| VGIRTFFRFRMR | 0.6692 ± 0.0014 |
| HIFQRMCKDMQL | 0.6296 ± 0.0037 |
| FSFNGMTRNCLR | 0.715 ± 0.014 |
| FLPFRPFPPFSA | 0.621 ± 0.0064 |
| VLPSSSPPGLRC | 0.6698 ± 0.0059 |
| TGTATGTEGANY | 0.698 ± 0.022 |
| LRGRRPFSQRAT | 0.662 ± 0.034 |
| RVSWGRTGTLRN | 0.681 ± 0.018 |
| YREPKISEMLQE | 0.621 ± 0.017 |
| SSALVLSGPPHS | 0.782 ± 0.1 |
| TAYNVTLVIARG | 0.468 ± 0.094 |
| AEARTRYVPRPR | 0.686 ± 0.02 |
| GSTGRGEGSGVT | 0.664 ± 0.04 |

| Sequence | protein stability index |
| --- | --- |
| PLPLPPSVTSLL | 0.729 ± 0.044 |
| GCRGVVVDGCGW | 0.593 ± 0.0073 |
| CDRNLSYGAGSV | 0.705 ± 0.049 |
| GGGGGGGGSSCA | 0.685 ± 0.067 |
| KKKQKYRREEKE | 0.724 ± 0.051 |
| PPAAHPFAPFPS | 0.71 ± 0.014 |
| SFDPCLCTLSLL | 0.6961 ± 0.0049 |
| APYSGSAMVIPG | 0.713 ± 0.028 |
| YPAVNLVPPPDV | 0.675 ± 0.013 |
| GNTGRLERLKRQ | 0.734 ± 0.072 |
| SFRPPSTPRRRT | 0.695 ± 0.03 |
| RGGGAGAVQYRS | 0.642 ± 0.014 |
| APAPSPPPPPPD | 0.562 ± 0.037 |
| SHTAWEQRVPKQ | 0.729 ± 0.02 |
| SWYSLVWTSSER | 0.695 ± 0.054 |
| VKTSRASLSGKL | 0.805 ± 0.12 |
| KKKKDQQQELKN | 0.657 ± 0.032 |
| LSEDGGHRWHRI | 0.796 ± 0.087 |
| SPLPRSLPPLPP | 0.654 ± 0.019 |
| IYSPLSPSTAPA | 0.664 ± 0.012 |
